B1: BBSome complex member BBS2 (Homo sapiens), Q9BXC9 (parent)
chain: MLLPVFTLKLRHKISPRMVAIGRYDGTHPCLAAATQTGKVFIHNPHTRNQHVSASRVFQSPLESDVSLLSINQAVSCLTAGVLNPELGYDALLVGTQTNLLAYDVYNNSDLFYREVADGANAIVLGTLGDISSPLAIIGGNCALQGFNHEGSDLFWTVTGDNVNSLALCDFDGDGKKELLVGSEDFDIRVFKEDEIVAEMTETEIVTSLCPMYGSRFGYALSNGTVGVYDKTSRYWRIKSKNHAMSIHAFDLNSDGVNELITGWSNGKVDARSDRTGEVIFKDNFSSAIAGVVEGDYRMDGHIQLICCSVDGEIRGYLPGTAEMRGNLMDTSAEQDLIRELSQKKQNLLLELRNYEENAKAELASPLNEADGHRGIIPANTRLHTTLSVSLGNETQTAHTELRISTSNDTIIRAVLIFAEGIFTGESHVVHPSIHNLSSSICIPIVPPKDVPVDLHLKAFVGYRSSTQFHVFESTRQLPRFSMYALTSLDPASEPISYVNFTIAERAQRVVVWLGQNFLLPEDTHIQNAPFQVCFTSLRNGGHLHIKIKLSGEITINTDDIDLAGDIIQSMASFFAIEDLQVEADFPVYFEELRKVLVKVDEYHSVHQKLSADMADHSNLIRSLLVGAEDARLMRDMKTMKSRYMELYDLNRDLLNGYKIRCNNHTELLGNLKAVNQAIQRAGRLRVGKPKNQVITACRDAIRSNNINTLFKIMRVGTASS
partner: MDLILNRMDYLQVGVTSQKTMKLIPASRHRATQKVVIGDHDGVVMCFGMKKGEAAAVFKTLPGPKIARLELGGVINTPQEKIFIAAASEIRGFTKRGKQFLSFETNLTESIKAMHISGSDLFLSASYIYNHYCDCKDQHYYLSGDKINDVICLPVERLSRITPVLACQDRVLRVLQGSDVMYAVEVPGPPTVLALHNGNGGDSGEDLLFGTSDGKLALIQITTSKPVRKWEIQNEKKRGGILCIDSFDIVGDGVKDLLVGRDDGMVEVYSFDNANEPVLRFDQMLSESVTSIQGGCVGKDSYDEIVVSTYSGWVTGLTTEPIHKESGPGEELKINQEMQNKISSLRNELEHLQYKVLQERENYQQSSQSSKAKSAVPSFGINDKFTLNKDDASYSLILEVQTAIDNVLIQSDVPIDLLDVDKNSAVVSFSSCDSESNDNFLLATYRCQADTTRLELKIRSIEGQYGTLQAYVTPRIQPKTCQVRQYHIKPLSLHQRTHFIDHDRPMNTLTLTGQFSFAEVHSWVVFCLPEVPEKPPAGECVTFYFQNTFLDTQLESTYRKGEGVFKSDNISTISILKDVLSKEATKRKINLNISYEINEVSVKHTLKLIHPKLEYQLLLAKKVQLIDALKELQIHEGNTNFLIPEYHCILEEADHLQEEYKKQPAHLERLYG

Variants of: B1
Settings: with BBS7, Q8IWZ6-2
With A459E the “effect of a mutation on the interaction” value was “with no effect”.
C442K was tested, and the “effect of a mutation on the interaction” value was “with no effect”.
T386E was tested, and the “effect of a mutation on the interaction” value was “with no effect”.
For E334K, the “effect of a mutation on the interaction” value was “with no effect”.
With E578K the “effect of a mutation on the interaction” value was “with no effect”.
In the case of F575E, the “effect of a mutation on the interaction” value is reported as “with no effect”.
With E420A the “effect of a mutation on the interaction” value was “with no effect”.
With L367E the “effect of a mutation on the interaction” value was “with no effect”.
In the case of N528K, the “effect of a mutation on the interaction” value is reported as “with no effect”.
Q335A was tested, and the “effect of a mutation on the interaction” value was “with no effect”.
L402A was tested, and the “effect of a mutation on the interaction” value was “disrupting interaction strength”.
With L402K the “effect of a mutation on the interaction” value was “disrupting interaction strength”.
For I548E, the “effect of a mutation on the interaction” value was “with no effect”.
With N517E the “effect of a mutation on the interaction” value was “with no effect”.
In the case of H435K, the “effect of a mutation on the interaction” value is reported as “with no effect”.
In the case of N393K, the “effect of a mutation on the interaction” value is reported as “with no effect”.
In the case of A485K, the “effect of a mutation on the interaction” value is reported as “with no effect”.
With P491A the “effect of a mutation on the interaction” value was “with no effect”.
With E426A the “effect of a mutation on the interaction” value was “with no effect”.
With C662A the “effect of a mutation on the interaction” value was “with no effect”.
With S438A the “effect of a mutation on the interaction” value was “with no effect”.
In the case of E362A, the “effect of a mutation on the interaction” value is reported as “with no effect”.
For D371A, the “effect of a mutation on the interaction” value was “with no effect”.
In the case of G552A, the “effect of a mutation on the interaction” value is reported as “with no effect”.
With I561E the “effect of a mutation on the interaction” value was “with no effect”.
S488A was tested, and the “effect of a mutation on the interaction” value was “with no effect”.
For T331A, the “effect of a mutation on the interaction” value was “with no effect”.
N705K was tested, and the “effect of a mutation on the interaction” value was “with no effect”.
Q569K was tested, and the “effect of a mutation on the interaction” value was “with no effect”.
For S332K, the “effect of a mutation on the interaction” value was “with no effect”.
For L550A, the “effect of a mutation on the interaction” value was “with no effect”.
With V461K the “effect of a mutation on the interaction” value was “with no effect”.
V461E was tested, and the “effect of a mutation on the interaction” value was “with no effect”.
In the case of T400K, the “effect of a mutation on the interaction” value is reported as “with no effect”.
For L633A, the “effect of a mutation on the interaction” value was “with no effect”.
S573E was tested, and the “effect of a mutation on the interaction” value was “with no effect”.
In the case of I568K, the “effect of a mutation on the interaction” value is reported as “with no effect”.
With W513A the “effect of a mutation on the interaction” value was “disrupting interaction strength”.
With Q677A the “effect of a mutation on the interaction” value was “with no effect”.
In the case of Q677K, the “effect of a mutation on the interaction” value is reported as “with no effect”.
In the case of F423K, the “effect of a mutation on the interaction” value is reported as “with no effect”.
In the case of M645K, the “effect of a mutation on the interaction” value is reported as “with no effect”.
For A414E, the “effect of a mutation on the interaction” value was “with no effect”.
In the case of L383K, the “effect of a mutation on the interaction” value is reported as “with no effect”.
With H617A the “effect of a mutation on the interaction” value was “with no effect”.
For Q680K, the “effect of a mutation on the interaction” value was “with no effect”.
With S493A the “effect of a mutation on the interaction” value was “with no effect”.
In the case of Y355A, the “effect of a mutation on the interaction” value is reported as “with no effect”.
With M637A the “effect of a mutation on the interaction” value was “with no effect”.
T696E was tested, and the “effect of a mutation on the interaction” value was “with no effect”.
In the case of Q527E, the “effect of a mutation on the interaction” value is reported as “with no effect”.
With Q532A the “effect of a mutation on the interaction” value was “disrupting interaction strength”.
With R681E the “effect of a mutation on the interaction” value was “with no effect”.
In the case of R681A, the “effect of a mutation on the interaction” value is reported as “with no effect”.
With R594K the “effect of a mutation on the interaction” value was “with no effect”.
M329E was tested, and the “effect of a mutation on the interaction” value was “with no effect”.
In the case of D649K, the “effect of a mutation on the interaction” value is reported as “with no effect”.
With L391K the “effect of a mutation on the interaction” value was “with no effect”.
With L478K the “effect of a mutation on the interaction” value was “disrupting interaction strength”.
With N540A the “effect of a mutation on the interaction” value was “disrupting interaction strength”.
T467K was tested, and the “effect of a mutation on the interaction” value was “with no effect”.
In the case of N676E, the “effect of a mutation on the interaction” value is reported as “with no effect”.
In the case of N676T, the “effect of a mutation on the interaction” value is reported as “disrupting interaction strength”.
Q343K was tested, and the “effect of a mutation on the interaction” value was “with no effect”.
With D330E the “effect of a mutation on the interaction” value was “with no effect”.
In the case of E356K, the “effect of a mutation on the interaction” value is reported as “with no effect”.
In the case of V453A, the “effect of a mutation on the interaction” value is reported as “with no effect”.
A701E was tested, and the “effect of a mutation on the interaction” value was “with no effect”.
With R635A the “effect of a mutation on the interaction” value was “with no effect”.
With I503A the “effect of a mutation on the interaction” value was “with no effect”.
In the case of S427E, the “effect of a mutation on the interaction” value is reported as “with no effect”.
S365E was tested, and the “effect of a mutation on the interaction” value was “with no effect”.
S365A was tested, and the “effect of a mutation on the interaction” value was “with no effect”.
For T558K, the “effect of a mutation on the interaction” value was “with no effect”.
With N354A the “effect of a mutation on the interaction” value was “with no effect”.
In the case of L685K, the “effect of a mutation on the interaction” value is reported as “with no effect”.
With V430E the “effect of a mutation on the interaction” value was “with no effect”.
In the case of F590E, the “effect of a mutation on the interaction” value is reported as “with no effect”.
In the case of D409E, the “effect of a mutation on the interaction” value is reported as “with no effect”.
L514K was tested, and the “effect of a mutation on the interaction” value was “with no effect”.
For L538A, the “effect of a mutation on the interaction” value was “with no effect”.
In the case of L538R, the “effect of a mutation on the interaction” value is reported as “disrupting interaction strength”.
For T424K, the “effect of a mutation on the interaction” value was “with no effect”.
For V626K, the “effect of a mutation on the interaction” value was “with no effect”.
For T555A, the “effect of a mutation on the interaction” value was “with no effect”.
For R403K, the “effect of a mutation on the interaction” value was “with no effect”.
K458E was tested, and the “effect of a mutation on the interaction” value was “with no effect”.
In the case of N663A, the “effect of a mutation on the interaction” value is reported as “with no effect”.
L580A was tested, and the “effect of a mutation on the interaction” value was “with no effect”.
With I376K the “effect of a mutation on the interaction” value was “with no effect”.
